From patent publication US20090285799A1 (CSL, published 2009)

T1: hIL-13Rα1.ECR (N-terminal FLAG-tagged fusion protein of the extracellular region of human IL-13Rα1) (human, UniProt P78552 29-343)
T1 construct: also called human IL-13Rα1.ECR; hIL-13Rα1 extracellular domain
T1 sequence: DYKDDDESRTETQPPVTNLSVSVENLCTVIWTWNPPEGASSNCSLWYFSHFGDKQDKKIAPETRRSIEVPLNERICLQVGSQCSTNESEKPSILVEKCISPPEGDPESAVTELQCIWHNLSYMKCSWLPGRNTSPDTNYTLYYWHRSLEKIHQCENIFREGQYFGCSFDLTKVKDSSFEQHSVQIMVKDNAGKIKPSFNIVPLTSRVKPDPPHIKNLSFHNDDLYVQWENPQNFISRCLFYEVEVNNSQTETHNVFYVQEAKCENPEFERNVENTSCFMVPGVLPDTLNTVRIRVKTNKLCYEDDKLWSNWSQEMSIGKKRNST

T2: IL-13Rα1 on whole blood cells or PBMCs (TARC release assay)
T2 sequence (P78552 whole entry, species assumed, looked up): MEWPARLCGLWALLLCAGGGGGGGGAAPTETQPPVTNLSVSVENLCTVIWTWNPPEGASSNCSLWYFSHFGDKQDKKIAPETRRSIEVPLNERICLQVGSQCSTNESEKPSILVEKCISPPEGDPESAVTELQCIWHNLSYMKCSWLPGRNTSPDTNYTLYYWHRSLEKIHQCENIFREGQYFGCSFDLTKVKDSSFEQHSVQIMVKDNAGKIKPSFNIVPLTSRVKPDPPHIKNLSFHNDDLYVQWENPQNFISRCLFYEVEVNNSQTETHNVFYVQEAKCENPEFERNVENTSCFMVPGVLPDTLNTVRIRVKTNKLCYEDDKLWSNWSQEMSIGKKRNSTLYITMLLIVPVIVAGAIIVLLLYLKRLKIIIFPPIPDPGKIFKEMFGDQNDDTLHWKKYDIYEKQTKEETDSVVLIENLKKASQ

T3: human IL-13Rα1 on normal human dermal fibroblast (NHDF) cells (human, UniProt P78552 27-427)
T3 sequence: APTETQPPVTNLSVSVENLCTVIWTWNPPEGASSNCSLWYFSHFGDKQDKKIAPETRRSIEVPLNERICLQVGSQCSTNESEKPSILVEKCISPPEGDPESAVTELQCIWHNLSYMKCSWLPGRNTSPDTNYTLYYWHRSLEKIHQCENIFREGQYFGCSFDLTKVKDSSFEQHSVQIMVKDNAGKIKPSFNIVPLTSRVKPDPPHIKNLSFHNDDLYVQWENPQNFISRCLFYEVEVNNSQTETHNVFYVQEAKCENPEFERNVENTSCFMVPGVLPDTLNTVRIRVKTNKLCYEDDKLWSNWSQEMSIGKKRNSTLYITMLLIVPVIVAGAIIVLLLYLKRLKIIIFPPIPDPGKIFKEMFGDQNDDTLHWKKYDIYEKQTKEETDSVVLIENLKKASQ


Key:
[1] = biological target: T1, hIL-13Rα1.ECR (N-terminal FLAG-tagged …); assay: ELISA on plate-bound hIL-13Rα1.ECR
[2] = biological target: T1, hIL-13Rα1.ECR (N-terminal FLAG-tagged …); assay: BIACORE SPR, hIL-13Rα1.ECR immobilized on CM5 chip, antibody as analyte, bivalent model
Method: BIACORE-Based Studies. Human IL-13Rα1.ECR (40 μg/ml in 20 mM Sodium Acetate, pH 4.2) of Example 1 was immobilized to a sensorchip (CM5, Biosensor, Sweden) using standard NHS/EDC chemistry according to the manufacturer's instructions at a set immobilization value, for example, 1000RU. Ethanolamine (1.0 M) pH 8.0 was used to quench residual active esters post hIL-13Rα1.ECR immobilization.
Analysis of binding of antibody (concentration range of 1.4 nM to 150 nM, two-fold dilutions) to the immobilized hIL-13Rα1. ECR was performed in duplicate. Sensorgrams generated were fitted to a bivalent ligand binding model to simultaneously derive association (kₐ) and dissociation (kd) rates and used to determine binding affinity (KD, Biaevaluation software, BIACORE™, Sweden).

[3] = biological target: T2, IL-13Rα1 on whole blood cells or PBMCs …; assay: cell-based or functional assay
[4] = biological target: T3, human IL-13Rα1 on normal human dermal …; assay: cell-based or functional assay
[5] = biological target: T3, human IL-13Rα1 on normal human dermal …; assay: cell-based or functional assay; remark: listed apart in the source

Kd [1] [nM] | Kd [2] [nM] | IL-13-stimulated TARC release in whole blood or PBMCs (IC50) [3] [µg/mL] | NHDF IL-13-induced STAT6 phosphorylation (EC50) [4] [µg/mL] | NHDF cells IL-13 Eotaxin release (IC50) [on average] [5] [µg/mL] | Binder
0.267 | 4.6 | ~2.6 | ~2.9 | 1 | 8B4 (antibody, V domains shown, Human monoclonal antibody purified from a hybridoma of HuMAb transgenic mice; also called PTA-6934) VH: EVQVLESGGGLVQPGGSLRLSCAASGFTFSNYAMTWVRQAPGKGLEWVSTISGRGYSIYYADSVKGRFTISRDNSKNTVYLQMNSLRAEDTAVYYCAKEEGHWYFDVWGRGTLVTVSS VL: EIVLTQSPDFQSVTPKEKVTITCRASQSIGSSLHWYQQKPDQSPKLLIKYASQSFSGVPSRFSGSGSGTDFTLTINSLEAEDAAAYYCHQSSSLPYTFGQGTKLEIK
0.087 | 2.1 | 2.5 | 3.8 | 9.7 | 6C11 (antibody, V domains shown, Human monoclonal antibody purified from a hybridoma of HuMAb transgenic mice; also called PTA-6930) VH: EVQVLESGGGLVQPGGSLRLSCAASGFTFNNYALTWVRQAPGKGLEWVSTISGRGYSIYYADSVKGRFTISRDNSKNTVYLQMNSLRAEDTAVYYCAKEEGHWFFDVWGRGTLVTVSS VL: EIVLTQSPDFQSVTPKEKVTITCRASQSIGSSLHWYQQKPDQSPKLLIKYASQSFSGVPSRFSGSGSGTDFTLTINSLEAEDAAAYYCHQSSSLPYTFGQGTKLEIK
0.36 | 16.5 | – | 7 | 3.5 | 2B6 (antibody, V domains shown, Human monoclonal antibody purified from a hybridoma of HuMAb transgenic mice; also called PTA-6932; 2136) VH: QVQLVESGGGVVQPGRSLRLSCAASGFTFSYYGMHWVRQAPGKGLEWVAFIWYDGSNKYYEDSVKGRFTISRDNSKNTLYLQMNSLRAEDTAVYYCARVAAAGAVEYFQHWGQGTLVTVSS VL: AIQLTQSPSSLSASVGDRVTITCRASQVISSVLAWYQQKSGKGPKLLIYDASSLESGVPSRFSGSGSGTDFTLTISSLQPEDFATYYCQQFNSYPLTFGGGTKVEIK
